Data as given in patent US12616648B2, “Cosmetic composition” (GIVAUDAN SA, priority 2018, dated 2026).

Tested on: Normal Human Keratinocytes (NHEKs)
Assay: NHEK scratch assay (wound healing)
Type: cell-based
Details: HB-EGF 1 ng/ml (positive control), overnight pre-incubation, 8 h after scratch
Procedure: Normal Human Keratinocytes (NHEKs) were seeded at 200′000 cells per well pre-coated with Type I collagen in 12-wells culture plates in the presence of keratinocyte growth medium (KGM, Lonza) supplemented with growth factors such as hydrocortisone, transferrin, epinephrine, bovine pituitary extract (BPE), recombinant human epidermal growth factor (rhEGF) and insulin. At confluence, cells were pre-incubated with the Patchouli stem extract of Example 1 at a concentration of 0.5% (v/v) or heparin-binding epidermal growth factor (HB-EGF) at 1 ng/ml (positive control) overnight in keratinocyte basal medium without supplement. After this pre-conditioning phase, the cell monolayer sticking to the bottom of the well was scratched with a P200 sterile cone, followed by two washes with phosphate buffered saline (PBS). The NHEK were then again stimulated with Patchouli extract at 0.5% or HB-EGF at 1 ng/ml for 8 h in basal medium.
The wound healing process was analyzed by pictures recording at T0 and T8h using inverting optical microscope (Zeiss). After image analysis, the percentage of scratch closing was determined relative to untreated condition.

B1: HB-EGF: heparin-binding epidermal growth factor, positive control in the scratch assay (protein, UniProt Q99075 63-148, looked up)
Heparin-binding EGF-like …: DLQEADLDLLRVTLSSKPQALATPNKEEHGKRKKKGKGLGKKRDPCLRKYKDFCIHGECKYVKELRAPSCICHPGYHGERCHGLSL
wound healing (scratch closing relative to untreated condition): about +60%
